Reference: US20170267755A1 (SRI INTERNATIONAL, published 2017)

Molecular target: T1, human mesothelin expressed on the plasma membrane of cells (HeLa, OVCAR-3, SK-OV-3, A1847) (human, UniProt Q13421 296-598)
T1 construct: whole, on cells; GPI-linked cell-surface form on human cell lines and on A1847 spheroid sections and tumors; also called Msln
Experiment: flow cytometry on HeLa cells, chemically biotinylated Nb, PE-streptavidin, double-reciprocal fit
Procedure: In specific experimental embodiments, the affinity of the two Nbs, Nb A1 and Nb C6, can determined by flow cytometry using HeLa cells. Binding to HeLa cells can be detected using flow cytometry after incubation with various concentrations of biotinylated Nbs followed by PE-labeled streptavidin. KD values are determined by the equation KD=a *Fₘₐₓ in which “a” is the regression line and Fₘₐₓ is the maximum of fluorescence. […] In addition, the higher affinity and maximum mean fluorescence intensity (MFI) achieved with Nb A1 is consistent with its predominant representation in the phage display output and the larger fluorescence shift seen with flow cytometry.
Briefly, fifty μg of each Nb are biotinylated chemically using the EZ-Link Micro NHSPEO4-Biotinylation Kit. After incubation of mesothelin-positive HeLa cells (5×10⁵) with various concentrations of biotinylated Nbs for one hour at four degrees C. under shaking (nine hundred rpm), Nbs binding is detected by flow cytometry following incubation with (PE)-labeled streptavidin. The KD values are determined by the equation: […]

T1 sequence (Q13421 other isoform, or with tags, fused parts or gaps limits assumed): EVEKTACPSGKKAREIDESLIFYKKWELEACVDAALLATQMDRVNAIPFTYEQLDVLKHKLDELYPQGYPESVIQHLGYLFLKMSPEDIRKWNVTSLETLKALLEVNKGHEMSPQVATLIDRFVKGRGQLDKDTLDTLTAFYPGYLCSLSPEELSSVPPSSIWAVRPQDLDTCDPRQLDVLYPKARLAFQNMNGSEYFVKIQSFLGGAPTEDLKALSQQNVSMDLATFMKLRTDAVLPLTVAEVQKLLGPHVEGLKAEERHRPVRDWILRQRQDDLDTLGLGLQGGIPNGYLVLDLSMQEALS

Kd | Binder
~15 nM | Nb A1 (VHH, Llama VHH made in the E. coli periplasm with a C-terminal His tag; also called G3A; G3a; not shown: C-terminal hexahistidine tag) VHH: HPGGSLRLSCAASGIDLSLYRMRWYRQAPGKERDLVALITDDGTSYYEDSVKGRFTITRDNPSNKVFLQMNSLKPEDTAVYYCNAETPLSPVNYWGQ
30 nM | Nb C6 (VHH, Llama VHH made in the E. coli periplasm with a C-terminal His tag; also called F10; not shown: C-terminal hexahistidine tag) VHH: QAGGSLRLSCAPSGSIFGIRTMDWYRQAPGKERELVARITMDGRVFHADSVKGRFSGSRDGASNAVYLQMNSLKPDDTAVYYCRYSGLTSREDYWGP
